Assays:
Experiment in all cases: SPR
[1] = target: T1, GkDnaC replicative helicase WT (Geobacillus kaustophilus HTA426, UniProt Q5KU75 1-454)
T1 sequence: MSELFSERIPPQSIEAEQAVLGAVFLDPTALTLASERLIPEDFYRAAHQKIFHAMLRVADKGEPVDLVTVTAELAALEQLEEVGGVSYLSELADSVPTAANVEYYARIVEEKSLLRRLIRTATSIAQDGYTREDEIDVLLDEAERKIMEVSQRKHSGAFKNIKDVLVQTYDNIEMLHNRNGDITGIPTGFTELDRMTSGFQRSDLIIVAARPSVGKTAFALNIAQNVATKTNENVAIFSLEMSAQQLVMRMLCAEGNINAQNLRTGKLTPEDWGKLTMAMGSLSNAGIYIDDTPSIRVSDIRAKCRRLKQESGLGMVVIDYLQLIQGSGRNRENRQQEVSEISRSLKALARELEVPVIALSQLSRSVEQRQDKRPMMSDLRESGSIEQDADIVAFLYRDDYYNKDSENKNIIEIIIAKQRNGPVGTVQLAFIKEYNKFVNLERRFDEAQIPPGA

GkDnaC R117A = target: T2, GkDnaC R117A (Geobacillus kaustophilus HTA426, UniProt Q5KU75 1-454, R117A)
T2 sequence: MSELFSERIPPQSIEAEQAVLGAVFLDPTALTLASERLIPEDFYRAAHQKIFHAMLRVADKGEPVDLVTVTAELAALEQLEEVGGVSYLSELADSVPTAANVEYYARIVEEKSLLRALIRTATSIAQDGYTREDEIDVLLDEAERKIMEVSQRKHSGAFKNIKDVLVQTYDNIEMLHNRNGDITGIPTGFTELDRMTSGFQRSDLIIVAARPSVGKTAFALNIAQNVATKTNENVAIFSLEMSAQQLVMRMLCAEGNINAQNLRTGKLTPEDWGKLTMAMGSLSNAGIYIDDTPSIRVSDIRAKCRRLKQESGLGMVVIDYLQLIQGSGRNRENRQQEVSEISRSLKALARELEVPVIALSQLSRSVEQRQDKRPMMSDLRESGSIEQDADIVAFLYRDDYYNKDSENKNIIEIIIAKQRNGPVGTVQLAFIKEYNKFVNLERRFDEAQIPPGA

GkDnaC R145A = target: T3, GkDnaC R145A (Geobacillus kaustophilus HTA426, UniProt Q5KU75 1-454, R145A)
T3 sequence: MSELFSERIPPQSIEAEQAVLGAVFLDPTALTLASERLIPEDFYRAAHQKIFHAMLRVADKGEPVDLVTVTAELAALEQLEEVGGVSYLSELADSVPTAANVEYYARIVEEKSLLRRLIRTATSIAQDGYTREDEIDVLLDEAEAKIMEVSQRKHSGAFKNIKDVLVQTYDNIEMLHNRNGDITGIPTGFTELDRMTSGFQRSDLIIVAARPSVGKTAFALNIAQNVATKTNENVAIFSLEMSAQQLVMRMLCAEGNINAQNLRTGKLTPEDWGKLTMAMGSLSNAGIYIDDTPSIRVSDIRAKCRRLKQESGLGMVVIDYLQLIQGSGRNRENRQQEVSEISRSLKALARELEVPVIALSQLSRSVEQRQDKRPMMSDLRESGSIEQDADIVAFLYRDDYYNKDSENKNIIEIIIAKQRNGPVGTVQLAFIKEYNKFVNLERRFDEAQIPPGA

[2] = target: T4, GkDnaC R145K146A double mutant (Geobacillus kaustophilus HTA426, UniProt Q5KU75 1-454, R145A;K146A)
T4 sequence: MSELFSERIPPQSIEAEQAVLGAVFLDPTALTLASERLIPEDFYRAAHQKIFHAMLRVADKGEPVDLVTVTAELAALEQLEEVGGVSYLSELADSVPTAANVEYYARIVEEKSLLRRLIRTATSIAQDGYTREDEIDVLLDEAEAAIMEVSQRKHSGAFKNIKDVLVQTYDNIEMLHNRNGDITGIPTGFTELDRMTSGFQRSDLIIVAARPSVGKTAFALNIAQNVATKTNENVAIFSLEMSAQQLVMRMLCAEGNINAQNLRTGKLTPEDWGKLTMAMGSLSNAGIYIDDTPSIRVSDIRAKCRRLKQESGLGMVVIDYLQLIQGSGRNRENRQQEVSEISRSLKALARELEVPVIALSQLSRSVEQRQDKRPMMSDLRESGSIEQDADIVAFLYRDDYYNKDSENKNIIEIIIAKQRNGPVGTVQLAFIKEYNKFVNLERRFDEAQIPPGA

B1: 5'Bio-(dT)30 (ssDNA)
DNA: TTTTTTTTTTTTTTTTTTTTTTTTTTTTTT
Work on B1 yielded a Kd [1] of 0.0469 µM, a Kd (GkDnaC R117A) of 1.47 µM and a Kd (GkDnaC R145A) of 1.39 µM. The Kd [2] was 27 µM.

Reference: paper PMC2647316 (Nucleic Acids Research, 2008)
